Literature values, collected in paper PMC3526805.

Biological target: C3b C3b (Homo sapiens) (UniProt P01024)
Chain of UniProt P01024 (P01024 566-670): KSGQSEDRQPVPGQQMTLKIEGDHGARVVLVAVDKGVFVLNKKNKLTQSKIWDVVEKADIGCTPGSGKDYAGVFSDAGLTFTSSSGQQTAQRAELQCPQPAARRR

Kd: 10 µM
Substance: Factor H four regulatory domains (from UniProt P08603)
